In US20020049303:

How the values were obtained:
[1] = molecular target: recombinant pro-memapsin 2 (pro-M2pd)
[2] = molecular target: T1, synthetic peptide from the APP beta-secretase site with the Swedish mutation SEVNL/DAEFR
T1 chain: SEVNLDAEFR

[3] = molecular target: T2, synthetic peptide PS1-gamma LVNMAEGD
T2 chain: LVNMAEGD

[4] = molecular target: oxidized bovine insulin B chain, P01317
[5] = molecular target: T3, synthetic peptide from the APP beta-secretase site SEVKM/DAEFR
T3 chain: SEVKMDAEFR

[6] = molecular target: T4, peptide from the processing site of presenilin 1 SVNM/AEGD
T4 chain: SVNMAEGD

[7] = molecular target: T5, synthetic peptide NCH-gamma VGSGVLLSRK
T5 chain: VGSGVLLSRK

Sequence of recombinant pro-memapsin 2 (pro-M2pd) (chain, as listed by the source): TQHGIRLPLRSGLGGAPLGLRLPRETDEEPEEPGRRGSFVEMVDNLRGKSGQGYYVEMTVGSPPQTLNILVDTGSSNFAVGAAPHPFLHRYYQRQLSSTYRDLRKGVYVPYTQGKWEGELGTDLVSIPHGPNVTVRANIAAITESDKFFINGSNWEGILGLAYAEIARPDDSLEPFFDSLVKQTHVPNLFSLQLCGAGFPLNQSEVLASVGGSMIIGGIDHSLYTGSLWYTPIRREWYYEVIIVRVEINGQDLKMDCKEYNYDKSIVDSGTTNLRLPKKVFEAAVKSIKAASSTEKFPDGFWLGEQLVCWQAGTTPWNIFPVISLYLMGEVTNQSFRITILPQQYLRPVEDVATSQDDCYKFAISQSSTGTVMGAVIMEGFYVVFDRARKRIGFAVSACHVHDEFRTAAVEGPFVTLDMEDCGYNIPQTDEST
Sequence of oxidized bovine insulin B chain, P01317 (P01317 25-54): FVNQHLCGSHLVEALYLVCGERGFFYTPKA

B1: recombinant memapsin 2 (M2pd), auto-activated from pro-M2pd at pH 4.0 (protein)
chain: GIRLPLRSGLGGAPLGLRLPRETDEEPEEPGRRGSFVEMVDNLRGKSGQGYYVEMTVGSPPQTLNILVDTGSSNFAVGAAPHPFLHRYYQRQLSSTYRDLRKGVYVPYTQGKWEGELGTDLVSIPHGPNVTVRANIAAITESDKFFINGSNWEGILGLAYAEIARPDDSLEPFFDSLVKQTHVPNLFSLQLCGAGFPLNQSEVLASVGGSMIIGGIDHSLYTGSLWYTPIRREWYYEVIIVRVEINGQDLKMDCKEYNYDKSIVDSGTTNLRLPKKVFEAAVKSIKAASSTEKFPDGFWLGEQLVCWQAGTTPWNIFPVISLYLMGEVTNQSFRITILPQQYLRPVEDVATSQDDCYKFAISQSSTGTVMGAVIMEGFYVVFDRARKRIGFAVSA
self-cleavage sites [1]: M^2pd cleaved its pro peptide (2 sites) and the protease portion (2 sites) during a 16 h incubation after activation
hydrolysis (Native proteins): Native proteins were not cleaved by M2pd
Km [2]: Km, 1 mM
fold increase of kcat/Km over native APP [2]: 60-fold increase of kcat/Km over that for native APP
kcat [2]: tcat, 2.45 s^-1
kcat/Km [2]: kcat/Km, 2450 s^-1M^-1
hydrolytic sites (HPLC and mass spectrometry) [3]: A single cleavage site was observed in synthetic peptide PS1-gamma
hydrolytic sites (HPLC and mass spectrometry) [4]: Two hydrolytic sites were identified on oxidized insulin B-chain
kcat/Km [5]: kcat/Km, 39.9 s^-1M^-1
Km [6]: Km, 15.2 mM
kcat [6]: kcat, 0.67 s^-1
kcat/Km [6]: kcat/Km, 43.8 s^-1M^-1
hydrolytic sites (HPLC and mass spectrometry) [7]: Three hydrolytic sites were identified from peptide NCH-gamma
